The record followed here is patent US20160376596A1 (BAVARIAN NORDIC A S, published 2016).

The target of this assay is T1, B19 protein of chorioallantois vaccinia virus Ankara (CVA) (Vaccinia virus, strain Ankara (CVA), UniProt P23998 20-351).
T1 construct: also called orthopoxviral B19 protein
As to the kind of experiment: statement in Example 3; no assay described for IFN-β.

B1: murine IFN-beta (ligand)
chain: INYKQLQLQERTNIRKCQELLEQLNGKINLTYRADFKIPMEMTEKMQKSYTAFAIQEMLQNVFLVFRNNFSSTGWNETIVVRLLDELHQQTVFLKTVLEEKQEERLTWEMSSTALHLKSYYWRVQRYLKLMKYNSYAWMVVRAEIFRNFLIIRRLTRNFQN
notes: also called IFN-β; murine IFN-β
As to B1, the binding result is recorded as “no binding”.
